Measured values: patent US20240093191A1, “COMPOSITIONS AND METHODS FOR TREATING DISEASE ASSOCIATED WITH DUX4 OVEREXPRESSION” (RESEARCH INSTITUTE AT NATIONWIDE CHILDREN'S HOSPITAL, priority 2021, published 2024)

Experiments:
Assay type in all cases: cell-based, human
DUX4 protein = experiment: Western blot of V5-tagged DUX4 protein in co-transfected HEK293 cells; details: CMV.DUX4-FL/CMV.eGFP; HEK293; molar ratio 1 to 3; eGFP normalizer; relative to U6-milacZ; N = 3-8
Description: Western Blots. […] 50 mM Tris (pH 7.5-8.0), 150 mM NaCl, 0.1% (v/v) SDS, 0.5% (v/v) deoxycholate, 1% (v/v) triton X-100 (Fisher Scientific) and 1 tablet of protease inhibitor (ThermoFisher Scientific) per 10 mL of buffer. The total protein extract was quantified using the DC Protein Assay (Bio-Rad). Twenty microgram samples were separated on 12% SDS-PAGE, transferred to nitrocellulose membrane, using the wet transfer system, and incubated with the following antibodies: mouse monoclonal antibody to V5 (horseradish peroxidase [HRP]-coupled) [1:5,000 in 5% milk TBST buffer (150 mM NaCl, 50 mM Tris-HCl pH 7.4 and 0.1% Tween 20 (Fisher Scientific)), R961-25; Invitrogen); rabbit polyclonal eGFP antibody (1:50,000 in 3% BSA PBS, ab290; Abcam); mouse monoclonal β-actin antibodies (1:60,000; Sigma, St Louis, MO); overnight at 4° C. When using the eGFP antibody, membranes were blocked 30 mins with 3% BSA PBS prior to blotting. eGFP-probed blots were washed five times, 5 min each with 0.5% Tween 20 (Fisher Scientific) in TBST buffer, and then incubated with HRP-coupled goat anti-rabbit secondary antibody (1:250,000 in 3% BSA PBS, 115-035-144; Jackson ImmunoResearch) for 2 hours at room temperature. V5-probed blots were washed five times, 5 min each with 0.1% Tween 20 in TBST buffer. Following washes, blots were developed using Immobilon Western HRP substrate (Millipore) and exposed to film. DUX4.V5, and eGFP quantification was assessed using ImageJ.

mir-675-5p [1] = experiment: ddPCR of all mature mir-675-5p sequences (TaqMan Advanced miRNA cDNA synthesis) in HEK293 cells
Description: Digital Droplet PCR (ddPCR). For mir-675 and mi405 constructs, RNA extraction was carried out as described for QPCR above. For cDNA synthesis, the TaqMan advanced cDNA synthesis kit (Thermo Fisher) was used and cDNA was prepared by following manufacturer's instructions. ddPCR was carried out using 1× ddPCR Supermix for probes (No dUTP) (Bio-Rad), 1× commercially available mir-675 advanced TaqMan probe, or a custom made mi405 advanced TaqMan probe (ThermoFisher) and 50 ng of cDNA. For DUX4 cDNA synthesis, the High-Capacity cDNA Reverse Transcription Kit (Applied Biosystems) was used according to manufacturer's instructions. Within the same cDNA reaction, 1×RT random hexamer primers and 25 pmoles of the Oligo(dT) primer were used to generate cDNA for DUX4 and DUX4-responsive biomarkers and for mouse Rpl13A, used as a reference gene. To quantify DUX4, the ddPCR reaction mixture (20 μL) contained 1× ddPCR Evagreen Supermix (Bio-Rad), 1 μM of forward and reverse DUX4 primers (Sharma et al., J Genet Syndr Gene Ther 2016 August; 7(4):303. doi: 10.4172/2157-7412.1000303. Epub 2016 Aug. 8), and 50 ng of cDNA. To quantify Rpl13A and DUX4-responsive biomarkers (Trim36 and Wfdc3), the 1× ddPCR Supermix for probes (No dUTP) and TaqMan specific probes were used for each of the genes. Droplets were generated using the Automatic Droplet generator QX200 AutoDG (Bio-Rad), the reactions were amplified in a C1000 Touch™ Thermal Cycler with 96-Deep Well Reaction Module (Bio-Rad). Cycling conditions were set up following the QX200 ddPCR Evagreen Supermix protocol. All assays are compatible with an annealing temperature of 58° C. Droplets were then read using the QX200 droplet reader (Bio-Rad). Finally, data were analyzed using the QuantaSoft analysis software (Bio-Rad). For quantification, each reaction of 20 μL was estimated to give at least 10,000 acceptable droplets.
In order to quantify the level of all these mature sequences, the TaqMan advanced miRNA cDNA synthesis method that uses universal reverse transcription (RT) chemistry to synthesize cDNA templates that can be quantified using the TaqMan Advanced miRNA probes was used. In this method, most of the processed mature miRNA sequences were quantified.

mir-675-5p [2] = experiment: Small-transcript northern blot of mir-675 processing in HEK293 cells; details: HEK293; anti-mir-675-5p biotinylated probe
From the text: Small-Transcript Northern Blots. […] (SEQ ID NO: 148)).

Molecule	Average inhibition efficiency (%) of DUX4 protein levels (DUX4 protein)	fold change of all mature mir-675-5p sequences compared to U6.mir-675 (mir-675-5p [1]) [%]	mature mir-675-5p bands on northern blot (mir-675-5p [2])
U6.mir-675-2.5: mir-675 construct with modified 5' and 3' flanking sequences (nucleic acid) DNA: TCTAGAGATCCGACGCCGCCATCTCTAGGCCCGCGCCGGCCCCCTCGCACAGACTTGTGGGAGAAGCTCGGCTACTCCCCTGCCCCGGTTAATTTGCATATAATATTTCCTAGTAACTATAGAGGCTTAATGTGCGATAAAAGACAGATAATCTGTTCTTTTTAATACTAGCTACATTTTACATGATAGGCTTGGATTTCTATAAGAGATACAAATACTAAATTATTATTTTAAAAAACAGCACAAAAGGAAACTCACCCTAACTGTAAAGTAATTGTGTGTTTTGAGACTATAAATATCCCTTGGAGAAAAGCCTTGTTAACGCGAATCACACTGCCCCAGGGTCTGGTGCGGAGAGGGCCCACAGTGGACTTGGTGACGCTGTATGCCCTCACCGCTCAGCCCCTGGGGATACTCCTAATCACACTTTTTT	56 ± 6 (N = 5) %	153±52	–
U6.mir-675F: U6 mir-675 construct with flanking sequences similar to H1.mir-675 (nucleic acid) DNA: GACGCCGCCATCTCTAGGCCCGCGCCGGCCCCCTCGCACAGACTTGTGGGAGAAGCTCGGCTACTCCCCTGCCCCGGTTAATTTGCATATAATATTTCCTAGTAACTATAGAGGCTTAATGTGCGATAAAAGACAGATAATCTGTTCTTTTTAATACTAGCTACATTTTACATGATAGGCTTGGATTTCTATAAGAGATACAAATACTAAATTATTATTTTAAAAAACAGCACAAAAGGAAACTCACCCTAACTGTAAAGTAATTGTGTGTTTTGAGACTATAAATATCCCTTGGAGAAAAGCCTTGTTTGCCCCAGGGTCTGGTGCGGAGAGGGCCCACAGTGGACTTGGTGACGCTGTATGCCCTCACCGCTCAGCCCCTGGGGAATTCTTCGATTCTGCTTTTTT	64 ± 6 (N = 6) %	133±38	detectable mir-675 mature sequences
U6.mir-675-2.1: mir-675 construct with modified 5' and 3' flanking sequences (nucleic acid) DNA: TCTAGAGATCCGACGCCGCCATCTCTAGGCCCGCGCCGGCCCCCTCGCACAGACTTGTGGGAGAAGCTCGGCTACTCCCCTGCCCCGGTTAATTTGCATATAATATTTCCTAGTAACTATAGAGGCTTAATGTGCGATAAAAGACAGATAATCTGTTCTTTTTAATACTAGCTACATTTTACATGATAGGCTTGGATTTCTATAAGAGATACAAATACTAAATTATTATTTTAAAAAACAGCACAAAAGGAAACTCACCCTAACTGTAAAGTAATTGTGTGTTTTGAGACTATAAATATCCCTTGGAGAAAAGCCTTGTTTGCCCCAGGGTCTGGTGCGGAGAGGGCCCACAGTGGACTTGGTGACGCTGTATGCCCTCACCGCTCAGCCCCTGGGGTAACTCCTAATCACACTTTTTT	64 ± 4 (N = 8) %	142±45	detectable mir-675 mature sequences
U6.mir-675-2.3: mir-675 construct with modified 5' and 3' flanking sequences (nucleic acid) DNA: TCTAGAGATCCGACGCCGCCATCTCTAGGCCCGCGCCGGCCCCCTCGCACAGACTTGTGGGAGAAGCTCGGCTACTCCCCTGCCCCGGTTAATTTGCATATAATATTTCCTAGTAACTATAGAGGCTTAATGTGCGATAAAAGACAGATAATCTGTTCTTTTTAATACTAGCTACATTTTACATGATAGGCTTGGATTTCTATAAGAGATACAAATACTAAATTATTATTTTAAAAAACAGCACAAAAGGAAACTCACCCTAACTGTAAAGTAATTGTGTGTTTTGAGACTATAAATATCCCTTGGAGAAAAGCCTTGTTTGAATCACACTGCCCCAGGGTCTGGTGCGGAGAGGGCCCACAGTGGACTTGGTGACGCTGTATGCCCTCACCGCTCAGCCCCTGGGGATACTCCTAATCACACTTTTTT	64 ± 10 (N = 8) %	114±8	–
